# Laboratory results as given in patent US12539335B2, “Tricyclic polypeptide conjugated drug and use thereof” (CONJUSTAR (ZHUHAI) BIOLOGICS CO., LTD., priority 2021, dated 2026).
# Counter-ions that a name gives are not always drawn. Starred links: 1 amine or outer side, 2 acyl side, 3 side chain; linkers in the order of their positions; H or OH if unused. Positions of bridges follow the written chain, without caps; N, C: chain ends. Non-standard residues stand in square brackets, D forms with d. Residues, ends and D or L forms follow the SMILES beside them. Chains are numbered I, II in the order given. *: point of attachment. TATA = O=C(CC[*:1])N1CN(C(=O)CC[*:2])CN(C(=O)CC[*:3])C1; Dolaproine = CO[C@@H]([C@@H]1CCCN1)[C@@H](C)C(=O)O; Dil = CC[C@H](C)[C@H](NC)[C@@H](CC(=O)O)OC; 1Nal = N[C@@H](Cc1cccc2ccccc12)C(=O)O; X2 = O=C(CCCC(=O)[*:2])NCCC(=O)[*:1]; PABC = O=C(OCc1ccc(N[*:1])cc1)[*:2]; X1 = C[C@@H](N*)[C@@H](O)c1ccccc1; Hyp = O=C(O)[C@@H]1C[C@@H](O)CN1; hArg = N=C(N)NCCCC[C@H](N)C(=O)O; Cit = NC(=O)NCCC[C@H](N)C(=O)O; Pen = CC(C)(S)[C@H](N)C(=O)O; NMeV = CN[C@H](C(=O)O)C(C)C; Sar = CNCC(=O)O
# Tests used:
# [1] = Pharmacokinetic analysis in rat plasma; type: in vivo, SD rats; conditions: Sprague-Dawley (SD), rat, SD rats, single IV 3 mg/kg, plasma
# Procedure: Test Example 5: Pharmacokinetic Analysis of the Compounds of the Present Invention in Rat Plasma
# To test the pharmacokinetics of the compounds of the present invention in SD rats.
# The pharmacokinetic characteristics of the compound after intravenous injection were tested in rats according to a standard protocol. The compound to be tested was formulated into a clear solution using 25 mM L-histidine (pH=7) in 10% sucrose as a vehicle. Two rats were given a single intravenous injection of 3 mg/kg of the compound to be tested. Whole blood was collected at time points of 0.083, 0.25, 0.5, 1, 2, 4, 8, and 24 hours after administration to get plasma. The concentration of the compound of the present invention and the concentration of its potential metabolite MMAE were analyzed by the LC-MS/MS method, and the pharmacokinetic parameters were calculated by Phoenix WinNonlin software.
# [2] = Metabolic stability in hepatocytes, Cynomolgus macaques; type: in vitro ADME; conditions: cynomolgus macaque, hepatocytes (cryopreserved, suspension), 0.5×10^6 cells/mL
# Procedure: Test Example 7: Metabolic Stability of the Compounds of the Present Invention in Hepatocytes from Mice, Rats, Cynomolgus Macaques, and Humans
# To investigate the metabolic stability of the compounds of the present invention in hepatocytes from mice, rats, Cynomolgus macaques, and humans.
# Incubations were performed in 96-well plates using an external extraction method. Several 96-well sample precipitation plates, designated T0, T15, T30, T60, T90, TO-MC, T90-MC, and blank matrix, were prepared, respectively. The recovery culture medium and incubation culture medium were removed in advance and placed in a 37° C. water bath for preheating. […]
# At the end of the incubation at the corresponding time point, the incubation plates were removed, from which 25 μL of a compound mixture with the cells and a control compound mixture with the cells were removed and added to sample plates containing 125 μL of stop buffer, respectively. […] All samples were mixed uniformly and then analyzed by the LC-MS/MS method.
# The concentration of the compound to be tested and the concentration of the control in the sample were semi-quantitatively determined by the liquid chromatography-tandem mass spectrometry (LC-MS/MS) method without a standard curve and quality control sample. […]
# [3] = Metabolic stability in kidney S9, CD-1 mice; type: in vitro ADME; conditions: mouse; CD-1 mice kidney S9
# Procedure: (§1) Test Example 8: Metabolic Stability of the Compounds of the Present Invention in Kidney S9 from Mice, Rats, Cynomolgus Macaques, and Humans
# (§2) To investigate the metabolic stability of the compounds of the present invention in kidney S9 from mice, rats, Cynomolgus macaques, and humans.
# (§3) Materials: Kidney S9 from CD-1 mice, SD rats, Cynomolgus macaques, and humans were purchased from BioIVT or XenoTech LLC and stored in a −80° C. refrigerator.
# (§4) Experimental procedure: Eight 96-well plates, designated T0, T5, T15, T30, T45, T60, Blank, and NCF60, were prepared. The first six incubation plates corresponded to reaction time points of 0, 5, 15, 30, 45, and 60 minutes, respectively. No test sample or control compound was added to the Blank plate.
# (§5) The T0, T5, T15, T30, T45, and T60 plates were added with a 2 μL working solution of the test sample (10 mM of a solution of the compound to be tested in DMSO, diluted to 100 μM with 100% acetonitrile) and 100 μL of a S9 working solution (kidney S9 protein concentration of 1.0 mg/mL), and the Blank plate was only added with the S9 working solution. The above incubation plates were then placed in a 37° C. water bath for pre-incubation for about 10 minutes.
# (§6) At the end of the pre-incubation, 98 μL of an auxiliary enzyme working solution was added to each sample well except the TO plate to start the reaction. […]
# [4] = Metabolic stability in kidney S9, Cynomolgus macaques; type: in vitro ADME; conditions: cynomolgus macaque
# Procedure: as §1, §2, §3, §4, §5, §6
smiles,measurement,setting,value
CC[C@H](C)[C@@H]([C@@H](CC(=O)N1CCC[C@H]1[C@H](OC)[C@@H](C)C(=O)N[C@H](C)[C@@H](O)c1ccccc1)OC)N(C)C(=O)[C@@H](NC(=O)[C@H](C(C)C)N(C)C(=O)OCc1ccc(NC(=O)[C@H](CCCNC(N)=O)NC(=O)[C@@H](NC(=O)CCCC(=O)NCCC(=O)N(C)CC(=O)N(C)CC(=O)N(C)CC(=O)N(C)CC(=O)N(C)CC(=O)N(C)CC(=O)N(C)CC(=O)N(C)CC(=O)N(C)CC(=O)N(C)CC(=O)N[C@H]2CCCCNC(=O)C[C@@H](C(=O)N[C@H]3CSCCC(=O)N4CN5CN(C4)C(=O)CCSC(C)(C)[C@H](NC(=O)[C@@H](CC(=O)O)NC(=O)[C@H](Cc4cccc6ccccc46)NC(=O)[C@@H]4CCCN4C3=O)C(=O)N[C@@H](CCSC)C(=O)N[C@@H](CCCCNC(=N)N)C(=O)N[C@@H](CC(=O)O)C(=O)N[C@@H](Cc3c[nH]c4ccccc34)C(=O)N[C@@H](CO)C(=O)N[C@@H]([C@@H](C)O)C(=O)N3CCC[C@H]3C(=O)N3C[C@H](O)C[C@H]3C(=O)N[C@@H](Cc3c[nH]c4ccccc34)C(=O)N[C@H](C(N)=O)CSCCC5=O)NC(=O)CN(C)C2=O)C(C)C)cc1)C(C)C [Acetate salt of PDC_2] (I: [Sar][Sar][Sar][Sar][Sar][Sar][Sar][Sar][Sar][Sar]K[Sar]DCP[1Nal][dD][Pen]M[hArg]DWSTP[Hyp]WC-NH2 / II: V[Cit][PABC][NMeV]V[Dil][Dolaproine]-X1; lactam I:11-I:13; linker I:14-I:18-I:28 via TATA; linker I:N-II:N via X2),AUC(0-t),[1],4.4 µM·h
same,C0,[1],6.9 µM
same,clearance,[1],2.7 mL/min/kg
same,half-life,[1],0.7 h
same,Vd,[1]; read-out: Vdss,0.1 L/kg
same,half-life at 1 μM,[2],> 3.61 h
same,CLint scaled at 1 μM,[2]; read-out: CLint (liver),< 23 mL/min/kg
same,half-life at 1 μM,[3],> 2.42 h
same,microsomal CLint at 1 μM,[3],< 9.6 µL/min/mg
same,half-life at 1 μM,[4],> 2.42 h
same,microsomal CLint at 1 μM,[4],< 9.6 µL/min/mg
